Data: patent US20210252159A1, “CONJUGATES OF CARTILAGE-HOMING PEPTIDES” (priority 2018, published 2021)
Like-named read-outs stand apart in the source and are kept apart here. Positions of bridges follow the written chain, without caps; N, C: chain ends. Residues, ends and D or L forms follow the SMILES beside them. *: point of attachment. X1 = CC(CCC(C)C(=O)*)C(=O)OCC(=O)[C@@]1(O)[C@H](C)C[C@H]2[C@@H]3CCC4=CC(=O)C=C[C@]4(C)[C@@]3(F)[C@@H](O)C[C@@]21C

Test system: CIA rats
Assay type: in vivo
Procedure: Ankle diameter measurements were recorded daily starting on induction day 9 and continuing for the duration of the study. […] Each treatment was administered on the day of enrollment (study day 0) and repeated daily for 7 days (study day 6). Rats were euthanized 3 h after the final dose and blood and organs were collected for testing.

[1] = 0.05 mg/kg daily for 7 days, study day 6

In the case of `CC[C@H](C)[C@@H]1NC(=O)[C@@H]2CSSC[C@H](NC(=O)[C@H](CCCNC(=N)N)NC(=O)[C@@H](NC(=O)[C@H](CC(N)=O)NC(=O)[C@@H](NC(=O)[C@@H]3CCCN3C(=O)[C@@H](NC(=O)CNC(=O)[C@H](CO)NC(=O)CNC(=O)C(C)CCC(C)C(=O)OCC(=O)[C@@]3(O)[C@H](C)C[C@H]4[C@@H]5CCC6=CC(=O)C=C[C@]6(C)[C@@]5(F)[C@@H](O)C[C@@]43C)C(C)C)[C@@H](C)CC)C(C)C)C(=O)N[C@@H](CCCNC(=N)N)C(=O)NCC(=O)N[C@@H](CO)C(=O)N[C@@H](CCCNC(=N)N)C(=O)N[C@@H](CC(=O)O)C(=O)N[C@H]3CSSC[C@H](NC(=O)[C@H](CCCNC(=N)N)NC(=O)[C@H](CO)NC(=O)[C@H](CC(N)=O)NC1=O)C(=O)N[C@@H](Cc1c[nH]cn1)C(=O)N[C@H](C(=O)N[C@H](C(=O)N1CCC[C@H]1C(=O)O)[C@@H](C)O)CSSC[C@H](NC(=O)[C@@H]1CCCN1C(=O)[C@H](CC(=O)O)NC(=O)[C@H](CC(C)C)NC3=O)C(=O)N[C@@H](CCCNC(=N)N)C(=O)N[C@@H](CCCNC(=N)N)C(=O)N[C@@H](C)C(=O)NCC(=O)N[C@@H](CCSC)C(=O)N[C@@H](CCCNC(=N)N)C(=O)N[C@@H](Cc1ccccc1)C(=O)NCC(=O)N[C@@H](CCCNC(=N)N)C(=O)N2` (stereo partly shown) [Compound 27, peptide(SEQ ID NO: 105)-[dimethyladipic acid]-Dex] (X1-GSGVPINVRCRGSRDCLDPCRRAGMRFGRCINSRCHCTP-OH; disulfide 10-30, 16-35, 20-37 (inferred); C-terminus assumed), the “plasma lymphocyte counts as compared to DexSP” value (0.05 mg/kg) is reported as “significantly higher”, the “spleen weight as compared to DexSP” value (0.05 mg/kg) is reported as “significantly higher” and the “plasma lymphocyte counts as compared to vehicle” value [1] is reported as “significantly reduced”. For the same compound, the “spleen weight as compared to vehicle” value [1] was “significantly reduced”, the “thymus weight as compared to vehicle” value [1] was “significantly reduced” and the ankle inflammation (highest dose of 0.05 mg/kg daily for 7 days) was “effective at reducing ankle inflammation”. The ankle inflammation (lower doses (0.001, 0.005, 0.01 mg/kg) daily for 7 days) was “indistinguishable from vehicle”.
